Assay results reported in patent publication US20140248360A1, “NANOPARTICLE TUMOUR VACCINES” (MIDATECH LIMITED, priority 2011, published 2014).

What was measured:
[1] = Aggregation and solubility of nanoparticle preparations; assay type: physicochemical; settings: for NP formed in repeat production: 75% methanol not 95% in the synthesis stage
Procedure: Samples were bench spun the supernatant removed and the dark pellet dissolved in 2 ml water, and then transferred to a 10 kDa vivaspin for a total of 4 times 2 ml water washes each of 8 min at 5 Krpm. Nanoparticles (NPs) were removed from the vivaspins and made up to 500 μl with water, they were then subjected to 15 Krpm bench spin to remove any large aggregates.
NP's 2-5 were produced by a variation using 75% methanol not 95% in the synthesis stage.

[2] = molecular target: SIINFEKL:K^b complex (SIINFEKL complexed to H-2K^b) on LK^b cells (murine) (UniProt P01901); test: cell-based or functional assay
Chain of UniProt P01901 (P01901 22-369 limits assumed, one chain of several): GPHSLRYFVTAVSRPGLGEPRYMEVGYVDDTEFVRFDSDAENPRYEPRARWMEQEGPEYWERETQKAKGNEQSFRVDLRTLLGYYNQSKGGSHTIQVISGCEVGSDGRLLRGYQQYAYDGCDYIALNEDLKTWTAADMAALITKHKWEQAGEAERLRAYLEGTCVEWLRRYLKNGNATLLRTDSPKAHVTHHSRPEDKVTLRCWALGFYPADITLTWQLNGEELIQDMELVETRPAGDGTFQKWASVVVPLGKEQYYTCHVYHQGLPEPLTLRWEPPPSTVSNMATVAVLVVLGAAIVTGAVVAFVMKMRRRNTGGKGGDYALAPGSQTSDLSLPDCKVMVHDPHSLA

Substance | NP formed in repeat production [1] | β-galactosidase measured using a luminescent substrate (B3Z activation); limit of detection as SIINFEKL pulse concentration [2] [ng/mL] | solubility of NP aggregates in NaOH ([1]; 300 mM NaOH) | aggregation of NP after synthesis ([1]; first production, after 15 Krpm bench spin) | solubility of NP aggregates ([1]; water, 10% acetic acid, PBS, DMSO or DMF)
NP 2: gold nanoparticle, GlcC2 corona, peptide ligand SIINFEKL-N-(CH2)2-SH | ‘normal’ NP |  |  |  | 
T cell receptor of the SIINFEKL:Kb-specific T hybridoma B3Z (TCR) |  | 5 |  |  | 
NP 3: gold nanoparticle, GlcC2 corona, peptide ligand FLSIINFEKL-N-(CH2)2-SH | formed aggregates |  | total NP solubilisation | large near complete aggregation | not soluble
